Earlier results as cited in PMC9713128.
pKd: −log10 of the molar value.

Target: HBcAg (Hepatitis B virus) (UniProt P03149)
Test: solution binding assay

Sequence of UniProt P03149 (P03149 whole entry): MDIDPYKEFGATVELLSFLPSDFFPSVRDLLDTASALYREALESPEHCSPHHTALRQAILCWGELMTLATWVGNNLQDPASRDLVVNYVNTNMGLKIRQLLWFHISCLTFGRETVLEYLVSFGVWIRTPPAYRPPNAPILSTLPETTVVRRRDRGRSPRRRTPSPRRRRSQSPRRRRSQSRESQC

Row | Substance | pKd
1 | cyclic peptide C-WSFFSNI-C | > 7.60
2 | cyclic peptide C-WPFWGPW-C | > 7.60
